In PMC11542851 (PLOS Pathogens, 2024):
Numbering of substitutions follows the chain as printed. Like-named read-outs stand apart in the source and are kept apart here.

B1: C68.185 (antibody, V domains shown)
VH: QVQLVQSGAEVKKPGASVKVSCKTSGYAFTDHYVHWVRQAPGQGLEWMGVINPSGVGTSYAQMFQDRVTLTSDTSTSTVYMVLSSLRSEDTAVYYCVRDDYGVPARGWFDPWGQGTLVTVSS
VL: EVVLTQSPATLSLSPGERATLSCRASQSISSYLAWYQQKPGQAPRLLIYDASNRATGVPARFSGSGSGADFTLTISSLEAEDFALYYCQHRSNWLYTFGQGTKLEIK
B2: C68.239 (antibody, V domains shown)
VH: EVQLLESGGGLVQPGGSLRLSCAASGFTFSSYAMSWVRQAPGKGLEWVSAISGGGDNTYYADSVKGRFTISRDNSKNTLYLQMNSLRAEDTAVYFCAKNPITVVPAAWDRGYFDLWGRGTLVTVSS
VL: SYELTQPPSVSVAPRKTARITCGGNNIGSYSVHWYQQRPGQAPVLVVHDDSDRPSGIPERFSGSNSGNTATLTISRVEAGDEADYYCQVWDSSSDHRGVFGGGTKLTVL
B3: C68.88 (antibody, V domains shown)
VH: QVQLQESGPGLVKPSETLSLTCSVSGGPISSSRYYWGWIRQSPGEGLEWIGTIYYSGSTYYNPSFKSRVTISVDTSKNQFSLKLSSVTAADTAVYYCATRCYDFWSGYYNREMLWFDCWGQGTLVTVSS
VL: NFMLTQPHSVSESPGKTVTISCTRSSGSIASNYVQWYQQRPGSSPTTVIYENNQTPSGVPDRFSGSIDSSSNSASLTISGLKTEDEADYYCQSYDSSVVVFGGGTKLTVL
B4: C68.183 (antibody, V domains shown)
VH: EVQLLESGGGLVQPGGSLRLSCVASGFTFRNFAMSWVRQAPGKGLEWVSAISGSGDSTYYADSVKGRFTISRDNSKNTLYLQVNSLRVEDTAIYYCAKGSRGSTDYFDSWGQGTLVTVSS
VL: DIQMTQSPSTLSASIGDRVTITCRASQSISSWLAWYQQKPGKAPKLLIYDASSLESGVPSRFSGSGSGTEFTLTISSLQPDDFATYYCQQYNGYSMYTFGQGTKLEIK
B5: C68.348 (antibody, V domains shown)
VH: QVQLQESGPRLVKSSGTLSLTCAVSGGSISSSKWWSWVRQPPGKGLEWIGEVYHGGSTNYNPSLKSRVTISVDKAKNQFSLKLSSVTAADSAVYYCASLDSAAVFDYWGQGTLVTVSS
VL: QSALTQPASVSGSPGQSITISCTGTSSDVGRFNYVSWYQQHPGKAPKLLIYDVSNRPSGVSNRFSGSKSGNTASLTISGLQAEDEADYYCNSYTSSSTLYVFGTGTKVTVL
B6: C68.201 (antibody, V domains shown)
VH: EVQLVQSGAEVKKPGESLKISCTGSGYSFAYYWIGWVRQMPGKGLEWMGNIYPGDSDTRYSPSFQGQITISSDKSISTAYLQWSSLKASDTAMYYCATRYSGTHYVGIDAFEIWGQGTMVTVSS
VL: not shown
B7: C68.327 (antibody, V domains shown)
VH: EVQLLESGGGLVQPGGSLRLSCAASGFTFGSYAMSWVRQAPGKGLEWVSAISGSGGSTYYADSVKGRFTISRDNSKNTLYLQMNSLRAEDTAVYNCAKDLWDGFHWFDSWGQGTLVTVSS
VL: DIQMTQSPSSVSASVGDRVTITCRASQGISSWLAWYQQKPGKAPNLLIYSASSLQSGVPSRFSGSGSGTDFTLTISSLQPEDFATYYCQQANSFPITFGQGTRLEIK
B8: C68.61 (antibody, V domains shown)
VH: EVQLVQSGAEVKKPGESLKISCKGSAYIFTRYWIGWVRQMPGKGLEWMGIIYPGDSDTRYSPSFQGQVTISADKSISTAYLQWSSLKASDTAMYYCARSGTTNYFDYWGQGTLVTVSS
VL: DIQLTQSPSTLSASVGDRVTITCRASQSISSWLAWYQQKPGKAPKLLIYDASSLDSGVPSRFSGSGSGTDFTLTISSLQPDDFATYYCQQFNSYWTFGQGTKVEIK
B9: C68.203 (antibody, V domains shown)
VH: EVQLLESGGGLVQPGGSLRLSCTASGFTFSRYALTWVRQAPGKGLECVSAFSGSGDSTYYADSVKGRFTISRDNSKNTLYLQMNSLRAEDTAVYYCAKSPRYNSDYFDFWGQGTLVTVSS
VL: B8 VL with D55E, D70E, F91Y, Y94F, W95I, K102R, V103L
B10: C68.200 (antibody, V domains shown)
VH: B9 VH with C47W, F51I, D56G, S57N, Y59N, S104N
VL: B8 VL with D55E, D70E, F91Y, S93T, Y94F, W95I, Q99H, K102R, V103L

Experiments:
[1] = biological target: T1, SARS-CoV-2 RBD subunit (recombinant) (SARS-CoV-2 Wuhan-Hu-1, UniProt P0DTC2); assay: ELISA; settings: both partners purified
T1 construct: source: bought: Sino Biologics

[2] = biological target: SARS-CoV-1 RBD, yeast-displayed (SARS-CoV-1, strain  (P59594 …, UniProt P59594)); assay: flow cytometry on cells; settings: one partner purified
[3] = biological target: RsSHC014 RBD, yeast-displayed (Bat SARS-like coronavirus RsSHC014, UniProt U5WLK5); assay: flow cytometry on cells; settings: one partner purified
[4] = biological target: T1, SARS-CoV-2 RBD subunit (recombinant)
[5] = biological target: SARS-CoV-2 Omicron XBB recombinant spike protein (trimer) (SARS-CoV-2 Omicron XBB (entry: XBB.1), strain)

Binder	binding result [1]	binding result [3]	also measured
B1	binds	–	binding result [2]: binds; fold lower binding than to SARS-CoV-1 RBD [3]: ~10 fold
B2	binds	binds	–
B3	binds	binds	–
B4	binds	binds	–
B5	binds	–	–
B6	–	–	binding result [4]: binds; binding result [5]: binds
B7	binds	–	–
B8	–	binds	–
B9	binds	–	–
B10	binds	–	–
